The RNAGym collection of RNA variant scans (doi:10.7554/elife.80360)

B1: HDV Ribozyme (parent)
chain: GGCCGGCAUGGUCCCAGCCUCCUCGCUGGCGCCGGCUGGGCAACAUUCCGAGGGGACCGUCCCCUCGGUAAUGGCGAAUGGGACCCA

Variants of: B1
Assay: self-cleavage, relative activity (ratio to wild type); higher = more cleavage; co-transcriptional
For GGCCGGCAUGGUCCCAGCCUCCUCGCUGGCGCCGGCUGGGCAACAUUCCGAGGGUACCGUCCCCUCGGUAAUGGCGAAUGGGACCGA [G55U C86G], the self-cleavage was 1.03. GGCCGGCAUGGUCCCAGCCUCCUCGCUGGCGCCGGCUGGGCAACAUUCCGAGGGGCCCGUCCCCUAGGUAAUGGCGAAUGGGACCCA [A56C C66A] showed a self-cleavage of 1.21. GGCCGGCAUGGUCCCAGCCUCCUCGCUGGCGCCGGCUGGGCAACAUUCCGAGGGUACCGUCCCCUCGGUAAUGGCGAAGGGGACCCA [G55U U79G] showed a self-cleavage of 0.591. Variant GGCCGGCAUGGUCCCAGCCUCCUCGCUGGCGCCGGCUGGGCAACAUUCCGAGGGCACCGUCCCCUCGGUAAUGGCGAAUGGGACACA [G55C C85A] has a self-cleavage of 0.752. GGCCGGCAUGGUCCCAGCCUCCUCGCUGGCGCCGGCUGGGCAACAUUCCGAGGGCACCGUCCCCUCGGUAAUGGCGAAUGGGACUCA [G55C C85U] gave a self-cleavage of 0.923. In the case of GGCCGGCAUGGUCCCAGCCUCCUCGCUGGCGCCGGCUGGGCAACAUUCCGAGGGGCCCGUCCCCUCGGUAAUGGCGAAUGGGACCCG [A56C A87G], the self-cleavage is reported as 0.846. In the case of GGCCGGCAUGGUCCCAGCCUCCUCGCUGGCGCCGGCUGGGCAACAUUCCGAGGGGCCCGUCCCCUCAGUAAUGGCGAAUGGGACCCA [A56C G67A], the self-cleavage is reported as 1.05. Variant GGCCGGCAUGGUCCCAGCCUCCUCGCUGGCGCCGGCUGGGCAACAUUCCGAGGGGCCCGUCCCCUCGGUAAUGGCAAAUGGGACCCA [A56C G76A] has a self-cleavage of 1.17. GGCCGGCAUGGUCCCAGCCUCCUCGCUGGCGCCGGCUGGGCAACAUUCCGAGGGCACCGUCCCCUCGGUAAGGGCGAAUGGGACCCA [G55C U72G] gave a self-cleavage of 0.449. GGCCGGCAUGGUCCCAGCCUCCUCGCUGGCGCCGGCUGGGCAACAUUCCGAGGGCACCGUCCCCUCGGUAAAGGCGAAUGGGACCCA [G55C U72A] gave a self-cleavage of 0.743. For GGCCGGCAUGGUCCCAGCCUCCUCGCUGGCGCCGGCUGGGCAACAUUCCGAGGGCACCGUCCCCUCGGUAAUGGCGAAUUGGACCCA [G55C G80U], the self-cleavage was 0.216. GGCCGGCAUGGUCCCAGCCUCCUCGCUGGCGCCGGCUGGGCAACAUUCCGAGGGGCCUGUCCCCUCGGUAAUGGCGAAUGGGACCCA [A56C C58U] gave a self-cleavage of 1.07. For GGCCGGCAUGGUCCCAGCCUCCUCGCUGGCGCCGGCUGGGCAACAUUCCGAGGGCACCGUCCCCUCGGUAAUGGUGAAUGGGACCCA [G55C C75U], the self-cleavage was 0.0361. GGCCGGCAUGGUCCCAGCCUCCUCGCUGGCGCCGGCUGGGCAACAUUCCGAGGGGCCCGUACCCUCGGUAAUGGCGAAUGGGACCCA [A56C C61A] showed a self-cleavage of 1.13. Work on GGCCGGCAUGGUCCCAGCCUCCUCGCUGGCGCCGGCUGGGCAACAUUCCGAGGGUACCGUCCCCUCGGUAAUGGCGAAUGGGACCCC [G55U A87C] yielded a self-cleavage of 1.01. Variant GGCCGGCAUGGUCCCAGCCUCCUCGCUGGCGCCGGCUGGGCAACAUUCCGAGGGUACCGUCCCCUCGGUAAUGGCGAAUGGGACCCG [G55U A87G] has a self-cleavage of 0.984. Variant GGCCGGCAUGGUCCCAGCCUCCUCGCUGGCGCCGGCUGGGCAACAUUCCGAGGGUACCGUCCCCUCGGUACUGGCGAAUGGGACCCA [G55U A71C] has a self-cleavage of 0.725. Variant GGCCGGCAUGGUCCCAGCCUCCUCGCUGGCGCCGGCUGGGCAACAUUCCGAGGGCACCGUCCCCUCGAUAAUGGCGAAUGGGACCCA [G55C G68A] has a self-cleavage of 0.967. GGCCGGCAUGGUCCCAGCCUCCUCGCUGGCGCCGGCUGGGCAACAUUCCGAGGGUACCGUCCCCUCGGUAAUGGCGAAUUGGACCCA [G55U G80U] gave a self-cleavage of 0.21. For GGCCGGCAUGGUCCCAGCCUCCUCGCUGGCGCCGGCUGGGCAACAUUCCGAGGGUACCGUCCCCUCGGUAAUGGCGAAUCGGACCCA [G55U G80C], the self-cleavage was 0.175. With GGCCGGCAUGGUCCCAGCCUCCUCGCUGGCGCCGGCUGGGCAACAUUCCGAGGGCACCGUCCCCUCGGUAAUGGCGAAUGGCACCCA [G55C G82C] the self-cleavage was 0.277. Variant GGCCGGCAUGGUCCCAGCCUCCUCGCUGGCGCCGGCUGGGCAACAUUCCGAGGGCACCGUCCCCUCGGUAAUGGCGAAUGGUACCCA [G55C G82U] has a self-cleavage of 0.277. Work on GGCCGGCAUGGUCCCAGCCUCCUCGCUGGCGCCGGCUGGGCAACAUUCCGAGGGUACCGUCCCCUCGGUAAUGGCGAAUGGGAACCA [G55U C84A] yielded a self-cleavage of 0.886. GGCCGGCAUGGUCCCAGCCUCCUCGCUGGCGCCGGCUGGGCAACAUUCCGAGGGGCCCGUCCCCUCGGUAAUGCCGAAUGGGACCCA [A56C G74C] gave a self-cleavage of 0.312. In the case of GGCCGGCAUGGUCCCAGCCUCCUCGCUGGCGCCGGCUGGGCAACAUUCCGAGGGUACCGGCCCCUCGGUAAUGGCGAAUGGGACCCA [G55U U60G], the self-cleavage is reported as 1.12. Variant GGCCGGCAUGGUCCCAGCCUCCUCGCUGGCGCCGGCUGGGCAACAUUCCGAGGGUACCGCCCCCUCGGUAAUGGCGAAUGGGACCCA [G55U U60C] has a self-cleavage of 1.11. With GGCCGGCAUGGUCCCAGCCUCCUCGCUGGCGCCGGCUGGGCAACAUUCCGAGGGCACCCUCCCCUCGGUAAUGGCGAAUGGGACCCA [G55C G59C] the self-cleavage was 0.867. Variant GGCCGGCAUGGUCCCAGCCUCCUCGCUGGCGCCGGCUGGGCAACAUUCCGAGGGGCCCGUCCCCUCGGUAAUGGCGCAUGGGACCCA [A56C A77C] has a self-cleavage of 0.482. In the case of GGCCGGCAUGGUCCCAGCCUCCUCGCUGGCGCCGGCUGGGCAACAUUCCGAGGGUACGGUCCCCUCGGUAAUGGCGAAUGGGACCCA [G55U C58G], the self-cleavage is reported as 1.04. For GGCCGGCAUGGUCCCAGCCUCCUCGCUGGCGCCGGCUGGGCAACAUUCCGAGGGUACCGUCCCCUCGGUAAAGGCGAAUGGGACCCA [G55U U72A], the self-cleavage was 0.648. Variant GGCCGGCAUGGUCCCAGCCUCCUCGCUGGCGCCGGCUGGGCAACAUUCCGAGGGGCACGUCCCCUCGGUAAUGGCGAAUGGGACCCA [A56C C57A] has a self-cleavage of 1.22. With GGCCGGCAUGGUCCCAGCCUCCUCGCUGGCGCCGGCUGGGCAACAUUCCGAGGGGCGCGUCCCCUCGGUAAUGGCGAAUGGGACCCA [A56C C57G] the self-cleavage was 0.978.
